The source of these data is patent publication US20060193821, “Aptamers to the human IL-12 cytokine family and their use as autoimmune disease therapeutics” (published 2006).

Data set [1] concerns the target IL-12 (human, p35/p40 heterodimer) (Homo sapiens, UniProt P29459;P29460 SEQ:57-253,SEQ:23-328). The experiment in a line: filter; no significant binding.
In data set [2] the target is T1, IL-23 (human, p19/p40 heterodimer) (Homo sapiens, UniProt Q9NPF7;P29460 SEQ:20-189,SEQ:23-328). The experiment in a line: filter; SHMCK, tRNA. As to conditions: tags: R&D Systems, carrier free. The method, then:
Monitoring Progress of rRfY Selection. Dot blot binding assays were performed throughout the selections to monitor the protein binding affinity of the pools. Trace ³²P-labeled RNA was combined with a dilution series of h-IL-23 and incubated at room temperature for 30 minutes in 1×SHMCK (20 mM Hepes, 120 mM NaCl, 5 mM KCl, 1 mM MgCl₂, 1 mM CaCl₂, pH 7.4) plus 0.1 mg/mL tRNA for a final volume of 20 μL. The binding reactions were analyzed by nitrocellulose filtration using a Minifold I dot-blot, 96-well vacuum filtration manifold (Schleicher & Schuell, Keene, N.H.). A three-layer filtration medium was used, consisting (from top to bottom) of Protran nitrocellulose (Schleicher & Schuell), Hybond-P nylon (Amersham Biosciences) and GB002 gel blot paper (Schleicher & Schuell). RNA that is bound to protein is captured on the nitrocellulose filter, whereas the non-protein bound RNA is captured on the nylon filter. The gel blot paper was included simply as a supporting medium for the other filters. Following filtration, the filter layers were separated, dried and exposed on a phosphor screen (Amersham Biosciences, Piscataway, N.J.) and quantified using a Storm 860 Phosphorimager® blot imaging system (Amersham Biosciences).
When a significant positive ratio of binding of RNA in the presence of h-IL-23 versus in the absence of h-IL-23 was seen, the pools were cloned using a TOPO TA cloning kit (Invitrogen, Carlsbad, Calif.) according to the manufacturer's instructions. For the h-IL-23 and X-IL-23 selections, the Round 8 pool templates were cloned, and 32 individual clones from each selections were assayed in a 1-point dot blot screen (+/−75 nM h-IL-23, as well as a separate screen at +/−75 nM h-IL-12). For the PN-IL-23 selection, the Round 10 pool was cloned and sequenced, and 8 unique clones were assayed for protein binding in a 1-point dot blot screen (+/−200 nM h-IL-23 and a separate screen at +/−200 nM h-IL-12). Subsequently, the Round 10 PN-IL-23 pool was re-cloned for further sequences, as well as the R12 PN-IL-23 pool, and the clones were assayed for protein binding in a 1 point do blot screen (+/−100 nM h-IL-23 or +/−200 nM h-IL-12).

In data set [3] the target is T1, IL-23 (human, p19/p40 heterodimer). Briefly: cell_activity; TransAM STAT3. As to conditions: tags: R&D Systems, carrier free. The method, then: In summary, the cell-based assay was conducted by isolating the peripheral blood mononuclear cells (PBMCs) from whole blood using a Histopaque gradient (Sigma, St. Louis, Mo.). The PBMCs were cultured for 3 to 5 days at 37° C./5% CO₂ in Peripheral Blood Medium (Sigma) which contains PHA, supplemented with IL-2 (100 units/mL) (R&D Systems, Minneapolis, Minn.), to generate PHA Blasts. To test IL-23 aptamers, the PHA Blasts were washed twice with 1×PBS, then serum starved for four hours in RPMI, 0.20% FBS. After serum starvation, approximately 2 million cells were aliquotted into appropriately labeled eppendorf tubes. hIL-23 at a final constant concentration of 3 ng/mL (R&D Systems, Minneapolis, Minn.) was combined with a dilution series of various IL-23 aptamers as described in Example 1, and the cytokine/aptamer mixture was added to the aliquotted cells in a final volume of 100 μl and incubated at 37° C. for 10-12 minutes. The incubation reaction was stopped by adding 1 mL of ice-cold PBS with 1.5 mM Na₃VO₄. Cell lysates were made using the lysis buffer provided by the TransAM™ STAT 3 assay following the manufacturer's instructions. FIG. 20 depicts a flow summary of the protocol used for the cell based assay.
Full length clones from the rRfY selection described in Example 1A, and select minimized rRfY clones that were described in Example 2A. 1, were tested using the TransAM™ STAT3 activation assay. Table 34 summarizes the cell based assay data for IL-23 full length aptamers generated from the rRfY selections described in Example 1A. 1, each compared to the activity of their respective parent (full length) clone.

For data set [4] the target is unchanged. Briefly: filter; DPBS Ca Mg. As to conditions: tags: R&D Systems, carrier free. The method, then: The dot blot binding assay previously described was used to characterize the relative potency of the majority of the aptamers synthesized. For KD determination, chemically synthesized aptamers were purified using denaturing polyacrylamide gel electrophoresis, 5′end labeled with γ-³²P ATP and were tested for direct binding to full human IL-23. An 8 point protein titration was used in the dot blot binding assay (either {100 nM, 30 nM, 10 nM, 3 nM, 1 nM, 300 pM, 100 pM, 0 pM} or {10 nM, 3 nM, 1 nM, 300 pM, 100 pM, 30 pM, 10 pM, 0 pM}) in Dulbecco's PBS (with Mg⁺⁺ and Ca⁺⁺) with 0.1 mg/mL BSA. KD values were calculated by fitting the equation y=(max/(1+K/protein))+yint using KaleidaGraph (KaleidaGraph v. 3.51, Synergy Software). Sequences of the ARC979 derivatives synthesized, purified and assayed for binding to IL-23 as well as the results of the protein binding characterization are tabulated below in Tables 29 and 30.

For orientation: Kd means the equilibrium constant for the complex coming apart. Usually IC50 stands for the concentration that inhibits the measured activity by half.

Chain of IL-12 (human, p35/p40 heterodimer) (P29459 23-219, chain 1 of 2): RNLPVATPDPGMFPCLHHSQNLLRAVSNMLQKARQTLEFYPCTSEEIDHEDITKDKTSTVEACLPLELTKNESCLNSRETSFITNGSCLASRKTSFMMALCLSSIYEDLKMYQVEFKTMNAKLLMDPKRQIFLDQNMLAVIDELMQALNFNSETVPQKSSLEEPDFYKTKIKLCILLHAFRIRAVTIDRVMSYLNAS
Chain of IL-12 (human, p35/p40 heterodimer) (P29460 23-328, chain 2 of 2): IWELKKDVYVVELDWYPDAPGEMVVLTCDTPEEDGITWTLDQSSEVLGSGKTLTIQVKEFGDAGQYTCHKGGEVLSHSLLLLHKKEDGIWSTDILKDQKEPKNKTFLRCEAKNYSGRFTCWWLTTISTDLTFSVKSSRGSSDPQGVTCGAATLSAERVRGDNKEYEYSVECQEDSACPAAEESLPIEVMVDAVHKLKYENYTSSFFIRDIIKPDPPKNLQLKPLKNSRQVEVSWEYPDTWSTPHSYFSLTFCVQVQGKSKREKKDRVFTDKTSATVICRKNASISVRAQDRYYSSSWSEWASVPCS
T1 sequence (Q9NPF7 20-189, chain 1 of 2): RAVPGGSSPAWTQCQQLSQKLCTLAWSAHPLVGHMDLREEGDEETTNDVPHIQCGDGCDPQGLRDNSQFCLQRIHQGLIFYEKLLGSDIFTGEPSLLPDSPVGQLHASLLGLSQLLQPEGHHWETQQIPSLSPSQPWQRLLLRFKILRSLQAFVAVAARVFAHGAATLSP
T1 sequence (P29460 23-328, chain 2 of 2): as the sequence (P29460 23-328, chain 2 of 2) above

B1: AMX84-A11 (ssRNA)
RNA: GGGAAAAGCGAAUCAUACACAAGAGAGGUAUGUGGUUUUGCGGAGCAACUCGUGUCAGCGGUCAGCUCCGCCAGAGACCAACCGAGAA
modifications: 2'-F C,U
Consider B1, for which, in data set [1], the binding result is recorded as “no binding”. In addition, in data set [2], binding was put at a Kd of 17.8 nM.

B2: AMX91-F11 (ssRNA)
RNA: GGGAAAAGCGAAUCAUACACAAGACGCGUCAGGUCCACGCUGAAAUUUAUUUUCGGCAGUGUAAGCUCCGCCAGAGACCAACCGAGAA
modifications: 2'-F C,U
Consider B2, for which the binding result in data set [1] was “no binding”. Moreover, in data set [2], binding was characterised by a dissociation constant (Kd) of 202 nM.

B3: AMX86-B5 (ssRNA)
RNA: GGGAAAAGCGAAUCAUACACAAGAUUAGUGCGUGUGUUGAAAGGGCUCAUAAUGUCAGUAUCGAGCUCCGCCAGAGACCAACCGAGAA
modifications: 2'-F C,U
As for B3, in data set [1], the binding result was “no binding”. For the same molecule, in data set [2], the affinity, expressed as Kd, was 196 nM.

B4: AMX86-A9 (ssRNA)
RNA: GGGAAAAGCGAAUCAUACACAAGAUCUACGAUUGUUCAGGUUUUUUGUACUCAACUAAAGGCGAGCUCCGCCAGAGACCAACCGAGAA
modifications: 2'-F C,U
Turning to B4, the binding result in data set [1] is “no binding”. Moreover, binding in data set [2] was put at a Kd of 190 nM.

B5: AMX91-E3 (ssRNA)
RNA: GGGAAAAGCGAAUCAUACACAAGAUUACUCCGUUAGUGUCAGUUGACGGAGGGAGCGUACUAUUGCUCCGCCAGAGACCAACCGAGAA
modifications: 2'-F C,U
With B5, the binding result in data set [1] is “no binding”. The same molecule came in with a Kd in data set [2] of 205 nM.

B6: AMX91-G11 (ssRNA)
RNA: GGGAAAAGCGAAUCAUACACAAGACUUAACAGUGCGGGGCGCAGUGUAUAGAUCCGCAAUGUGUGCUCCGCCAGAGACCAACCGAGAA
modifications: 2'-F C,U
B6: the binding result in data set [1] is given as “no binding”. Binding in data set [2] was put at a Kd of 104 nM.

B7: AMX91-H12 (ssRNA)
RNA: GGGAAAAGCGAAUCAUACACAAGACGUGUGCUUUAUGUAAACCAUAACGUUCCAUAAGGAAUAUGCUCCGCCAGAGACCAACCGAGAA
modifications: 2'-F C,U
On to B7, for which the binding result in data set [1] was “no binding”. The same molecule registered a Kd in data set [2] of 60.8 nM.

GGAGUACGCCGAAAGGCGCUUCCGAAAGGACGUCCGUAAGGGAUACUCC (ssRNA, 2'-F C,U) [Type 1.5] gave an IC50 in data set [3] of 80 nM.

B8: AMX84-E12 (ssRNA)
RNA: GGGAAAAGCGAAUCAUACACAAGAAGUUUUUGUGCUCUGAGUACUCAGCGUCCGUAAGGGAUAUGCUCCGCCAGAGACCAACCGAGAA
modifications: 2'-F C,U
As to B8, the binding result in data set [1] was “no binding”. In addition, the Kd in data set [2] was found to be 27.8 nM.

B9: AMX86-E6 (ssRNA)
RNA: GGGAAAAGCGAAUCAUACACAAGAUCGCAAAAGGAGUUUGUCUCUGCUCUCGGAGUGUGUCAGUGCUCCGCCAGAGACCAACCGAGAA
modifications: 2'-F C,U
On to B9, for which the binding result in data set [1] is reported as “no binding”. The molecule further gave a Kd in data set [2] of 51.3 nM.

B10: AMX91-B5 (ssRNA)
RNA: GGGAAAAGCGAAUCAUACACAAGACAGUGUAUGAGGAAGAUUACUUCCAUUCCUGAGCGGUUUUCGCUCCGCCAGAGACCAACCGAGAA
modifications: 2'-F C,U
Regarding B10, the binding result in data set [1] is given as “no binding”. Besides, the Kd in data set [2] was found to be 148 nM.

B11: AMX86-F6 (ssRNA)
RNA: GGGAAAAGCGAAUCAUACACAAGAAUGUAUACAAUGCCCUAUCGUCAGUUAGGCAUGUGUGGAUGCUCCGCCAGAGACCAACCGAGAA
modifications: 2'-F C,U
Turning to B11, in data set [1], the binding result was “no binding”. Binding in data set [2] was put at a Kd of 69.1 nM.

B12: AMX86-C7 (ssRNA)
RNA: GGGAAAAGCGAAUCAUACACAAGAUGCGCUAUGUUUGGCUGGGAAUUGUAGCAUUGCUCAAGUGGCUCCGCCAGAGACCAACCGAGAA
modifications: 2'-F C,U
With B12, in data set [1], the binding result is recorded as “no binding”. The same molecule returned a Kd in data set [2] of 140 nM.

B13: AMX86-D8 (ssRNA)
RNA: GGGAAAAGCGAAUCAUACACAAGACAGAGGCAAUGAGAGCCUGGCGAUGUCAGUCGCAUCUUGCUGCUCCGCCAGAGACCAACCGAGAA
modifications: 2'-F C,U
In the case of B13, in data set [1], the binding result is recorded as “no binding”. In addition, the Kd in data set [2] was 294 nM.

B14: AMX86-C8 (ssRNA)
RNA: GGGAAAAGCGAAUCAUACACAAGAGUCGUGAUGAUUUGGGUUAUGUCAGUUCCCUGUAUGGUUUCGCUCCGCCAGAGACCAACCGAGAA
modifications: 2'-F C,U
In the case of B14, in data set [1], the binding result is “no binding”. In addition, the Kd in data set [2] came to 107 nM.

B15: AMX91-G1 (ssRNA)
RNA: GGGAAAAGCGAAUCAUACACAAGAUAUGUGCCUGGGAUGGACGACAUCCCCUGUCUAAGGAUAUGCUCCGCCAGAGACCAACCGAGAA
modifications: 2'-F C,U
Turning to B15, the binding result in data set [1] is reported as “no binding”. In data set [2], this molecule had a Kd of 82.3 nM.

B16: AMX86-H7 (ssRNA)
RNA: GGGAAAAGCGAAUCAUACACAAGAGAUGACUACACGCCAGUGUGCGCUUUUUGCGGAGUUAGCGGCUCCGCCAGAGACCAACCGAGAA
modifications: 2'-F C,U
With B16, in data set [1], the binding result was “no binding”. In addition, in data set [2], the affinity, expressed as Kd, was 89.8 nM.

B17: AMX91-A6 (ssRNA)
RNA: GGGAAAAGCGAAUCAUACACAAGAUUGGCAAUGUGACCUUCAACCCUUUUCCCGAUGAACAGUGGCUCCGCCAGAGACCAACCGAGAA
modifications: 2'-F C,U
For the molecule B17, the binding result in data set [1] is “no binding”. Further, the affinity in data set [2], expressed as Kd, was 60.3 nM.

B18: AMX86-G9 (ssRNA)
RNA: GGGAAAAGCGAAUCAUACACAAGAUCCCAGCGGUACGUGAGUCUGUUAAAGGCCACCUAAUGUCGCUCCGCCAGAGACCAACCGAGAA
modifications: 2'-F C,U
For B18, in data set [1], the binding result is reported as “no binding”. In data set [2], this molecule gave a Kd of 109 nM.

For the molecule ACAGGCAAGUAAUUGGGGAGUGCGGGCGGGGUGU (mixed, 2'-OMe C,U and G4; other A,G deoxy; 3'-idT) [ARC1429], the Kd in data set [4] was found to be 29.5 nM.

B19: ARC1462 (mixed)
RNA: ACAGGCAAGUAAUUGGGGAGUGCGGGCGGGGUGU
modifications: deoxy A,G; 2'-OMe C,U; PS 29-30; 3'-idT [2'-OMe C,U at 2,6,10,13,14,21,23,27,32,34; deoxy A,G elsewhere; PS 29-30 (N = PS linkage, left out); 3'-inverted dT at 35]
With B19, in data set [4], the Kd is 1.7 nM.

B20: F11.min2 (ssRNA)
RNA: GGACAUACACAAGAUGUGCUUGAGUUAAAUCUCAUCGUCCCCGUUUGGGGAUAUGUC
modifications: 2'-F C,U
B20: in data set [3], the concentration for half-maximal inhibition (IC50) was 25 nM.
